The results in this text go back to US20220280663A1, “[…] TARGETED […] ACTIVE SUBSTANCE OR LABEL […] SYSTEM” (CELLIS AG, priority 2016, published 2022).

Common to all, as to format: cell-based
One test relates to EMT6. The experiment in a line: Ferritin transfer from RAW264.7 macrophages to EMT6 cells under oxidative stress. An excerpt:
FIG. 27: Ferritin transfer was examined in cancer cells (EMT6) co-cultured with ferritin-loaded macrophages (RAW264.7) for 2 hrs. Three experimental conditions were used: “ctrl” (normal co-culture, no stress); “EMT6 OS” when EMT6 cells were subjected to the oxidative stress before co-culture and then co-cultured with macrophages at normoxic conditions and “co-culture OS” when both cell types were subjected to the oxidative stress before the co-culture. […] It can be related with higher load of ferritin due to oxidative stress and therefore more efficient transfer, or oxidative stress triggers macrophages to more efficiently deliver ferritins to cancer cells in order to reduce oxidative stress in neighboring cells.

The next test has as its system cancer cells. The experiment in a line: Transfer of iron binding proteins from loaded leukocytes to co-cultured cancer cells. An excerpt: However, in case of cancer cells the ratio of both cell types is crucial. The more macrophages the better and faster the transport is. The most efficient transfer to the cancer cells was observed when ratio of macrophages to cancer cells was 1:1 or more.
This transfer of compounds conjugated with anticancer drugs made the effect inducing apoptosis in cancer cells (FIG. 6, 13).
However, the ratio of both cell types is important. The more monocytes the better and faster the transport is. The most efficient transfer to the cancer cells was observed when ratio of monocytes to cancer cells was 1:1 or more.
However, the ratio of both cell types is crucial. The more granulocytes the better and faster the transport is. The most efficient transfer to the cancer cells was observed when ratio of granulocytes to cancer cells was 1:1 or more.
However, the ratio of both cell types is crucial. The more lymphocytes the better and faster the transport is. The most efficient transfer to the cancer cells was observed when ratio of lymphocytes to cancer cells was 1:1 or more.

For a further test, the system named is CD45^+ leukocyte cell. Put plainly: Uptake and storage of iron binding proteins by CD45+ leukocyte cells. The procedure:
Obtained cells are incubated in ferritin solution for a time and at the concentration sufficient to ensure proper ratio of ferritin/cell for their full load and also to ensure proper drug content to obtain therapeutic effect or contrast for proper imaging. The time and concentration may vary depending on the number of molecules encapsulated/adsorbed into the ferritin cage, status of cell activation, condition and number of their intended administration.
For example, to ensure proper load with ferritins, cells are incubated for 1-4 hours in ferritin solution 0.8 mg/ml in standard culture conditions. The frame of ferritin concentration may vary at least between 0.01 and 4 mg/ml as well as incubation time (5 min-6 hours or more). Adjusting time and concentration of ferritin load to cells, the influence of ferritin and treatment conditions on cell viability should be minded.
Obtained cells are incubated in haemoglobin solution for a time and at the concentration sufficient to ensure proper ratio of haemoglobin/cell for their full load and also to ensure proper drug content to obtain therapeutic effect or contrast for proper imaging. The time and concentration may vary depending on the number of molecules linked with the haemoglobin molecule, status of cell activation, condition and number of their intended administration. […]

B1: ferritins: recombinant mouse ferritin protein of SEQ ID NO: 4; mammalian ferritin H and/or L homopolymers (protein)
chain: MTTASPSQVRQNYHQDAEAAINRQINLELYASYVYLSMSCYFDRDDVALKNFAKYFLHQSHEEREHAEKLMKLQNQRGGRIFLQDIKKPDRDDWESGLNAMECALHLEKSVNQSLLELHKLATDKNDPHLCDFIETYYLSEQVKSIKELGDHVTNLRKMGAPEAGMAEYLFDKHTLGHGD
As for B1, the “ferritin received by cancer cells from macrophages versus control” value with EMT6 (EMT6 OS: EMT6 cells subjected to oxidative stress before 2 hrs co-culture) is on record as “more ferritins than control cells”. Moreover, the “ferritin uptake by cancer cells from macrophages” value in the test with EMT6 (co-culture OS: both cell types subjected to oxidative stress before 2 hrs co-culture) is on record as “even more efficient”. The “specificity of transfer from macrophages: cancer cells versus non-cancer cells” value in the test with cancer cells (FIG. 11) was “much more specific to cancer cells than to non-cancer cells”. The “transport to cancer cells from granulocytes” value in the test on cancer cells (loaded granulocytes (FIG. 15)) was “very easily transport”. Besides, in the test on cancer cells (loaded lymphocytes (FIG. 16)), the “transport to cancer cells from lymphocytes” value is reported as “very easily transport”. Besides, in the test on cancer cells (loaded macrophages, mouse mammary, colon, canine mammary, human breast, pancreatic, bladder cancer cells), the “transport to cancer cells from macrophages” value was “very easily transport”. Further, the “transport to cancer cells from monocytes” value with cancer cells (loaded monocytes (FIG. 14)) is “very easily transport”. Moreover, in the test on CD45^+ leukocyte cell (after ferritin loading (FIG. 9)), the “release of absorbed ferritin to the culture medium” value was “do not release it to the culture medium”. The “uptake of iron binding protein by cells” value in the test with CD45^+ leukocyte cell (incubation 1-4 hours in protein solution (ferritin 0.8 mg/ml; haemoglobin, transferrin 0.1 mg/ml), standard culture conditions) was “very easily uptake”.
